Molecular target: T1, dopamine D2 receptor (mouse (endogenous in C57BL/6 brain slices)), P61168
T1 chain: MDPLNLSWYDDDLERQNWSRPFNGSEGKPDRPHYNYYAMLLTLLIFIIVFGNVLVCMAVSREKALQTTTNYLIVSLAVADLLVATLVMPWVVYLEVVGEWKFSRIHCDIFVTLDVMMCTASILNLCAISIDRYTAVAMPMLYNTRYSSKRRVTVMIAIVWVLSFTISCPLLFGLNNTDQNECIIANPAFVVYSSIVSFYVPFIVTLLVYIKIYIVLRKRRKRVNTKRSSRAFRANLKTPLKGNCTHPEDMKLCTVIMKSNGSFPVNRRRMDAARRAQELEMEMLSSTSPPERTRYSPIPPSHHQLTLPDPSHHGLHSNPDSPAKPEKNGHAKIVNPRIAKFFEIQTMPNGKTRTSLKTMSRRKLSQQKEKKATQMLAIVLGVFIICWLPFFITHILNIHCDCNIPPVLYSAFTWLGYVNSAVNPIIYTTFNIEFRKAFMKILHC
Assay: proximity ligation
Conditions: remark: other sources report otherwise

B1: dopamine D1 receptor, Q61616 1-446 (receptor)
chain: MAPNTSTMDETGLPVERDFSFRILTACFLSLLILSTLLGNTLVCAAVIRFRHLRSKVTNFFVISLAVSDLLVAVLVMPWKAVAEIAGFWPFGSFCNIWVAFDIMCSTASILNLCVISVDRYWAISSPFQYERKMTPKAAFILISVAWTLSVLISFIPVQLSWHKAKPTWPLDGNFTSLEDAEDDNCDTRLSRTYAISSSLISFYIPVAIMIVTYTSIYRIAQKQIRRISALERAAVHAKNCQTTTGNGNPVECSQSESSFKMSFKRETKVLKTLSVIMGVFVCCWLPFFISNCMVPFCGSEETQPFCIDSITFDVFVWFGWANSSLNPIIYAFNADFQKAFSTLLGCYRLCPTTNNAIETVSINNNGAVMFSSHHEPRGSISKDCNLVYLIPHAVGSSEDLKREEAGGIPKPLEKLSPALSVILDYDTDVSLEKIQPVTHSGQHST
**Q.** B1 was tested. Which PLA dots per µm^2 did it give?
**A.** 0.283 dots/µm^2

— publication PMC4390438
